From patent US20110009311A1 (US Dept. of Health and Human Services, published 2011)
Where no end group is shown, it is not given here.

B1: thrombospondin-1 (TSP1), calcium replete, purified from human platelets (ligand)
chain: not shown
B2: MBP-invasin fusion protein (ligand)
chain: AVIGDGAPANGKTAITVEFTVADFEGKPLAGQEVVITTNNGALPNKITEKTDANGVARIALTNTTDGVTVVTAEVEGQRQSVDTHFVKGTIAADKSTLAAVPTSIIADGLMASTITLELKDTYGDPQAGANVAFDTTLGNMGVITDHNDGTYSAPLTSTTLGVATVTVKVDGAAFSVPSVTVNFTADPIPDAGRSSFTVSTPDILADGTMSSTLSFVPVDKNGHFISGMQGLSFTQNGVPVSISPITEQPDSYTATVVGNTAGDVTITPQVDTLILSTLQKKISLFPVPTLTGILVNGQNFATDKGFPKTIFKNATFQLQMDNDVANNTQYEWSSSFTPNVSVNDQGQVTITYQTYSEVAVTAKSKKFPSYSVSYRFYPNRWIYDGGTSLVSSLEASRQCQGSDMSAVLESSRATNGTRAPDGTLWGEWGSLTAYSSDWQSGEYWVKKTSTDFETMNMDTGALVQGPAYLAFPLCALAI

Legend:
[1] = target: T1, α3β1 integrin (endogenous on human cells: MDA-MB-435 breast carcinoma, HUVEC, HDME, OH-1 SCLC) (human, UniProt P26006 33-1051; P05556 21-798); experiment: cell-based or functional assay
T1 sequence (P26006 33-1051, chain 1 of 2): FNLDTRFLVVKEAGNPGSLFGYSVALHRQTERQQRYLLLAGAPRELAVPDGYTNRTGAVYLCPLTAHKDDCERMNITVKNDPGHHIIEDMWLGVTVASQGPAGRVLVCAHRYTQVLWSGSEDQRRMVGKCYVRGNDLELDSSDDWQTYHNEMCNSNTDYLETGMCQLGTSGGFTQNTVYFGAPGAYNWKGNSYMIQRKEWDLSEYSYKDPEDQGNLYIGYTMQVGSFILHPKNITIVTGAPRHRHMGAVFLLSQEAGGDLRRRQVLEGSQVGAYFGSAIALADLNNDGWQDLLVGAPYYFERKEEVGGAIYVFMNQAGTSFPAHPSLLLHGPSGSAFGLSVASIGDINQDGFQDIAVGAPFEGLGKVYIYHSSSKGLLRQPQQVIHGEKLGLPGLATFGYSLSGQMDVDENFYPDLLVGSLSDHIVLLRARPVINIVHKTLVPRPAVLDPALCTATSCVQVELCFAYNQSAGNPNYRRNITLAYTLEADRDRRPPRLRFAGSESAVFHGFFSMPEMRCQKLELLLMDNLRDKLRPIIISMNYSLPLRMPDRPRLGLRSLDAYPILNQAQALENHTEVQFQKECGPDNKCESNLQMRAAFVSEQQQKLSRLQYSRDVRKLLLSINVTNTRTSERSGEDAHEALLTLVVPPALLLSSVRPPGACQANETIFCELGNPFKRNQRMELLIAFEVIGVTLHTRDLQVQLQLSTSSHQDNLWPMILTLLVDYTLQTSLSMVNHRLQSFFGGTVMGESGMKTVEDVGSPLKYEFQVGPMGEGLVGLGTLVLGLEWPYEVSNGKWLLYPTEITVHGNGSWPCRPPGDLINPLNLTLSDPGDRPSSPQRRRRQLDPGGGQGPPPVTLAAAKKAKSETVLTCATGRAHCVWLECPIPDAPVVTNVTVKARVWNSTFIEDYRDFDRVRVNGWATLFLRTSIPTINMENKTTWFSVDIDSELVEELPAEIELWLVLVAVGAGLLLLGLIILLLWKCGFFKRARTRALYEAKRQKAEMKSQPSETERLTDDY
T1 sequence (P05556 21-798, chain 2 of 2): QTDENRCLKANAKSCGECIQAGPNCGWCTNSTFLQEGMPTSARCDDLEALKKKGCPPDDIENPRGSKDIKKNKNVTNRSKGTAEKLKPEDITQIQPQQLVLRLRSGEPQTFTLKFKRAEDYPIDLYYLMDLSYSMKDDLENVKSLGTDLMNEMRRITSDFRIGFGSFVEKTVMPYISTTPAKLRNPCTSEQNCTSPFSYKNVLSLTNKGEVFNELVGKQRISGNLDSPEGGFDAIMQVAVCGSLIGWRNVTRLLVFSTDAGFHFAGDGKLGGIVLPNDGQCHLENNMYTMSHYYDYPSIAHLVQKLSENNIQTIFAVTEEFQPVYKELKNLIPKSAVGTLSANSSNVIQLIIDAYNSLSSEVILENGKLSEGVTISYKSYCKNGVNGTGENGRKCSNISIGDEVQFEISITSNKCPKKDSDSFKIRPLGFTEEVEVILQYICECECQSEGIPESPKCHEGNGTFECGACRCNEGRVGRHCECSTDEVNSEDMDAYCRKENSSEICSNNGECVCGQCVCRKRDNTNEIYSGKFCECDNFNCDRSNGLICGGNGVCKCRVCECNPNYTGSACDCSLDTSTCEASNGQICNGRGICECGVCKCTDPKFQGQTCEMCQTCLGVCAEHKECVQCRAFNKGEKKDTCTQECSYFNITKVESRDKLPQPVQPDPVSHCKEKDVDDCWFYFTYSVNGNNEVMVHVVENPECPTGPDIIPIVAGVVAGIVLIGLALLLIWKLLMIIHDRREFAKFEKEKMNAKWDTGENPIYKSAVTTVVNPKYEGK

[2] = target: T1, α3β1 integrin (endogenous on human …); experiment: cell-based or functional assay; remark: listed apart in the source
[3] = target: T1, α3β1 integrin (endogenous on human …); experiment: soluble peptide, inhibition of MDA-MB-435 cell adhesion to immobilized peptide 678
[4] = target: T1, α3β1 integrin (endogenous on human …); experiment: cell-based or functional assay; remark: listed apart in the source
[5] = target: T1, α3β1 integrin (endogenous on human …); experiment: MDA-MB-435 cell adhesion and inhibition of adhesion (FIG. 3A and results not shown)
[6] = target: T1, α3β1 integrin (endogenous on human …); experiment: direct MDA-MB-435 cell adhesion to adsorbed peptide (FIG. 8)

Binder | IC50 (µM), inhibition of MDA-MB-435 cell adhesion to immobilized peptide 678 [1] [µM] | IC50, inhibition of MDA-MB-435 cell adhesion to immobilized peptide 678 (hexosaminidase method) [2] [µM] | IC50, inhibition of MDA-MB-435 cell adhesion to immobilized peptide 678 (microscopic adhesion assay) [2] [µM] | also measured
FAGVLQNVRFVF [peptide 696] | 1.8 | 12 | 1.8 | –
FQGVLQNLRFVF [peptide 719] | – | 16 | – | –
QGVLQNVR [peptide 683] | – | – | > 300 | binding result [3]: no binding (tested: >300 µM)
FQGVLQNVKFVF [peptide 702] | 6 | 25 | 6 | –
FRGCVRNLRLSR [laminin peptide 679] | – | 700 | – | –
FQGVLQSVRFVF [peptide 705] | – | 15 | – | –
AQGVLQNVRFVF [peptide 697] | 5 | – | 5 | –
FQGVLQQVRFVF [peptide 717] | – | 30 | – | –
FQGVLQNVHFVF [peptide 694] | 54 | – | 54 | –
FQGVLQNVRF [peptide 682] | – | – | 6 | –
B1 | – | – | – | IC50, inhibition of OH-1 SCLC cell proliferation by soluble protein [4]: 40 nM
FQGVLQDVRFVF [peptide 718] | – | 12 | – | –
QGVLQNVRFVF [peptide 685] | – | – | 24 | –
KQNCLSSRASFRGCVRNLRLSR [murine laminin-1 peptide GD6] | – | – | – | IC50, inhibition of MDA-MB-435 cell adhesion to peptide 678, GD6 or TSP1 by the soluble laminin peptide (data not shown) [4]: 700 µM
TPGQVRTLWHDP (also called (part of C6)) [TSP1 peptide 701] | – | – | > 300 | binding result [5]: no binding
B2 | – | – | – | IC50, inhibition of OH-1 SCLC cell proliferation by soluble protein [4]: 80 nM
FQGVAQNVRFVF [peptide 695] | 5 | – | 5 | –
FQGVLQNVRFVA [peptide 693] | 27 | – | 27 | –
FQGVLANVRFVF [peptide 687] | 3 | – | 3 | –
FQGVLQNVRAVF [peptide 692] | 18 | – | 18 | –
VLQNVRFVF [peptide 688] | – | – | > 100 | –
Ac-LQNVRF-NH2 [peptide 681] | – | – | 500 | –
FQGVLQNVRFVF [TSP1 peptide 678] | 3.5 | 15 | 3.5 | IC50, inhibition of OH-1 SCLC cell proliferation by soluble peptide [4]: 6 µM
FQGVLQNVAFVF (also called control peptide 690) [peptide 690] | > 300 | – | > 300 | binding result [6]: no binding (tested: adsorbed at 10 µM)
LQNVRFVF [peptide 684] | – | – | 300 | –
Ac-QGVLQNVRF [peptide 704] | – | ~100 | 15 | –
FQGVLNNVRFVF [peptide 698] | – | – | 3 | –
